Two compounds from paper PMC4225490, “Crystal structure of the γ-hydroxymuconic semialdehyde dehydrogenase from Pseudomonas sp. strainWBC-3, a key enzyme involved in para-Nitrophenol degradation” (BMC Structural Biology, 2013) can be followed below.

Test [1] concerns the target γ-hydroxymuconic semialdehyde dehydrogenase PnpE from Pseudomonas sp. strain WBC-3 (Pseudomonas sp. strain WBC-3). Nature of the test: crystal structure; apo-PnpE, space group P21, 2.7 Å; eight monomers in the asymmetric unit; crystals grown from 20% PEG3350, 0.2 M KNO3 at 20°C.
The target of test [2] is T1, PnpE, γ-hydroxymuconic semialdehyde dehydrogenase (Pseudomonas sp. WBC-3, UniProt C1I208).
T1 construct: recombinant His-tagged in E. coli BL21(DE3), pET29b NdeI/XhoI; Ni-NTA, Source-Q, Superdex-200; homodimer (four dimers per asymmetric unit)
T1 sequence (C1I208 1-487): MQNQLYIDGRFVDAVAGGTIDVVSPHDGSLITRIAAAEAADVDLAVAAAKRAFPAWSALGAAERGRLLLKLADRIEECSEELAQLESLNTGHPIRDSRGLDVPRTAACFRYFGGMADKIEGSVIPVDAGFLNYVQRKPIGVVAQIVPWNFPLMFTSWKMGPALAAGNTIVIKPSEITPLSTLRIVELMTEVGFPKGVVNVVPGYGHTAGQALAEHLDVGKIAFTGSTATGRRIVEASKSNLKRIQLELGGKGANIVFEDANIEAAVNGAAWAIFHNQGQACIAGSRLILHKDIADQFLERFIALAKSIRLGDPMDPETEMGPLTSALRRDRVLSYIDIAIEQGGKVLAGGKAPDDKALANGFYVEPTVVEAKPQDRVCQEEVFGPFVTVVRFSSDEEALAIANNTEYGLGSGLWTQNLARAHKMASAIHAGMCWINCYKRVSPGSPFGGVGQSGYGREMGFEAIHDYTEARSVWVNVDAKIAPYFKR
The test is described as follows: X-ray crystal structure, […] Å. The class given is binding. The settings on record: co-crystallised with 1 mM NAD, 0.1 M Bicine pH 8.5, 20% PEG10000, 20 °C; cofactor site.

“γ-hydroxymuconic semialdehyde dehydrogenase PnpE from Pseudomonas sp. strain WBC-3 (enzyme)” registered a stoichiometry N in test [1] of 2. On to `NC(=O)c1ccc[n+]([C@@H]2O[C@H](COP(=O)(O)OP(=O)(O)OC[C@H]3O[C@@H](n4cnc5c(N)ncnc54)[C@H](O)[C@@H]3O)[C@@H](O)[C@H]2O)c1` [NAD], for which, in test [2], the “X-ray crystal structure, 3.1 Å” value is “In the PnpE-NAD complex structure, NAD is situated in a cleft of PnpE”.
